In the supplement of paper PMC9170038:

Tested on: MS2 coat protein
Assay: apparent KD of MS2 coat protein; designed switch direction (-1 OFF switch, 1 ON switch): -1; higher = weaker reporter binding
Outline: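 Normalised cluster fluorescence was curve-fitted, and each design's median over clusters is its apparent KD. Before this, SNAP-549-labelled MS2 coat protein was titrated from 0.7 or 1.5 nM, doubling to 3 µM, over RNA switches transcribed on Illumina chips by stalled E. coli RNA polymerase. Titrations had no input, 200 uM small-molecule ligand, or an oligonucleotide input, and steps lasted 0.8–1.5 h (lowest) to 10–20 min (highest).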

[1] = Eterna round: R95, input ligand: FMN 200 uM
[2] = Eterna round: R95, input ligand: microRNA oligo, concentration not stated
[3] = Eterna round: R95, input ligand: none
[4] = input ligand: microRNA oligo, concentration not stated

Sequence: GGUUGGCGAGGAUAUACAUGAGGAUCACCCAUGUGAAAGAAAAAAGUGAGGAAGAAAAGUAGAAGGCGCUGACG [salish99_ex3_r3_016] (puzzle: Exclusion 3)
- apparent KD of MS2 coat protein [1]: 5.86 nM
- apparent KD of MS2 coat protein [2]: 8.93 nM
- apparent KD of MS2 coat protein [3]: 14.4 nM

Sequence: GGUUGGCGAGGAUAUACAUGAGGAUCACCCAUGUGAGAAAGAAAAGUGAGGAAGAAAAGUAGAAGGCGCUGACG [Mat - Exclusion 3 - Mod of Salish D2] (puzzle: Exclusion 3)
- apparent KD of MS2 coat protein [1]: 583 nM
- apparent KD of MS2 coat protein [2]: 53.4 nM
- apparent KD of MS2 coat protein [3]: 99.8 nM

Sequence: GGUUGGCGAGGAUAUACAUGAGGAUCACCCAUGUGAGAGAAAAAAGUCAGGAAGAAAAGUAGAAGGCGCUGACG [salish99_ex3_r3_028] (puzzle: Exclusion 3)
- apparent KD of MS2 coat protein [1]: 32.4 nM
- apparent KD of MS2 coat protein [2]: 21.7 nM
- apparent KD of MS2 coat protein [3]: 22.5 nM

Sequence: GGUUGGCGAGGAUAUACAUGAGGAUCACCCAUGUGAGAGAAAAAAGUGAGGACGAAAAGUAGAAGGCGCUGACG [salish99_ex3_r3_032] (puzzle: Exclusion 3)
- apparent KD of MS2 coat protein [1]: 223 nM
- apparent KD of MS2 coat protein [2]: 69.1 nM
- apparent KD of MS2 coat protein [3]: 61.6 nM

Sequence: GGUUGGCGAGGAUAUACAUGAGGAUCACCCAUGUGAGAGAAUAAAGUGAGGAAGAAAAGUAGAAGGCGCUGACG [salish99_ex3_r3_013] (puzzle: Exclusion 3)
- apparent KD of MS2 coat protein [1]: 1030 nM
- apparent KD of MS2 coat protein [2]: 42.1 nM
- apparent KD of MS2 coat protein [3]: 47 nM

Sequence: GGUUUGCGGCAGGAUAUCCAUCCGCGGUAUGGUGGAGAAGGGCUGACAUGAGGAUCACCCAUGUGCGUCCUAGG [salish99_ex6_r4_018] (Eterna round: R97, puzzle: Exclusion 6)
- apparent KD of MS2 coat protein (input ligand: FMN 200 uM): 24.6 nM
- apparent KD of MS2 coat protein (input ligand: none): 18.8 nM

Sequence: GGUUUGGGAGGAUAUGGUUUUAAUAACAUGAGGAUCACCCAUGUAAAUAGAUCCUCAAGGCCAGAAGGCUCGGGCC [-24.9, -24.02 kcal, A 29%] (Eterna round: R97, puzzle: Exclusion 5)
- apparent KD of MS2 coat protein (input ligand: FMN 200 uM): 508 nM
- apparent KD of MS2 coat protein (input ligand: none): 143 nM

Sequence: GUAAAACAUGAGGAUCACCCAUGUCAGGAUAUACGAUUCCACCCUAACUGCGUGGAACGUAGAAGGGACAUAGG [Exclusion 1 (MOD6.1 Esqu)] (Eterna round: R97, puzzle: Exclusion 1)
- apparent KD of MS2 coat protein (input ligand: FMN 200 uM): 57.9 nM
- apparent KD of MS2 coat protein (input ligand: none): 221 nM

Sequence: GUAAAACAUGUAGGAUAUGCGUGGCAAAGCUAUGCAGAAGGACAUGAGGAUCACCCAUGUUAAAGCGUCUGCGUACAGAUGCAA [Mat - Exclusion NG 1 - Mod of JL - D95] (Eterna round: R96, puzzle: Exclusion NG 1)
- apparent KD of MS2 coat protein (input ligand: FMN 200 uM): 143 nM
- apparent KD of MS2 coat protein [4]: 30.5 nM
- apparent KD of MS2 coat protein (input ligand: none): 30.7 nM

Sequence: GUAAAGUGAGGAUAUGGUAAAGUAAGUAUUUAGUAAGUAAUCCAGAAGGCACAUGAGGAUCACCCAUGUAAAUG [Mat - Exclusion 4 - D98] (puzzle: Exclusion 4)
- apparent KD of MS2 coat protein [2]: 29.2 nM

Sequence: GUAAAGUGAGGAUAUGGUAAAGUAAUUAUUUAGUAAGUAAUCCAGAAGGCACAUGAGGAUCACCCAUGUAAAUG [Mat - Exclusion 4 - D97] (puzzle: Exclusion 4)
- apparent KD of MS2 coat protein [2]: 25.7 nM

Sequence: GUAAAUCAUGUAGGAUAUGCAUAGCAAAGCUAUGCAGAAGGACAUGAGGAUCACCCAUGUCAUUCCGUCUGGAGACAGACGGAA [Mat - Exclusion NG 1 - Mod of JL - D59] (Eterna round: R96, puzzle: Exclusion NG 1)
- apparent KD of MS2 coat protein (input ligand: FMN 200 uM): 121 nM
- apparent KD of MS2 coat protein [4]: 22 nM
- apparent KD of MS2 coat protein (input ligand: none): 32.2 nM

Sequence: GUAAAUCAUGUAGGAUAUGCGUGGCGAAGCUAUGCAGAAGGACAUGAGGAUCACCCAUGUGCUUCCGUCUGAGAACAGACGGAA [Mat - Exclusion NG 1 - Mod of JL - D27] (Eterna round: R96, puzzle: Exclusion NG 1)
- apparent KD of MS2 coat protein (input ligand: FMN 200 uM): 105 nM
- apparent KD of MS2 coat protein [4]: 187 nM
- apparent KD of MS2 coat protein (input ligand: none): 341 nM

Sequence: GUAAAUCAUGUAGGAUAUGCGUGGCGAAGCUAUGCAGAAGGACAUGAGGAUCACCCAUGUGCUUCCGUCUGAGAACAGACGGAG [Mat - Exclusion NG 1 - Mod of JL - D28] (Eterna round: R96, puzzle: Exclusion NG 1)
- apparent KD of MS2 coat protein (input ligand: FMN 200 uM): 222 nM
- apparent KD of MS2 coat protein [4]: 116 nM
- apparent KD of MS2 coat protein (input ligand: none): 244 nM

Sequence: GUAACAUGCUGGUGAUCAUACAUGAGGAUCACCCAUGUAACAAGCUUUUUGCUCGUCUUAUAAGAUCACCAGCAUGU [Stov1/9-A3] (Eterna round: R97, puzzle: Sensor, turn-off variant 1)
- apparent KD of MS2 coat protein (input ligand: FMN 200 uM): 12.2 nM
- apparent KD of MS2 coat protein (input ligand: none): 13.6 nM

Sequence: GUAACAUGCUGGUGAUCAUACAUGAGGAUCACCCAUGUAACAAGCUUUUUGCUCGUCUUAUAAGAUUACUAGUAUGU [Stov1/10-A3] (Eterna round: R97, puzzle: Sensor, turn-off variant 1)
- apparent KD of MS2 coat protein (input ligand: FMN 200 uM): 22 nM
- apparent KD of MS2 coat protein (input ligand: none): 24.3 nM

Sequence: GUAACAUGCUGGUGAUCAUACAUGAGGAUCACCCAUGUAACAAGCUUUUUGCUCGUCUUAUAAUUUAAGAUCACCAG [Stov1/7-A3] (Eterna round: R97, puzzle: Sensor, turn-off variant 1)
- apparent KD of MS2 coat protein (input ligand: FMN 200 uM): 16.3 nM
- apparent KD of MS2 coat protein (input ligand: none): 16.2 nM

Sequence: GUAAUGAUUGUGAGGAUAUUUCAUAGAUAGAUAUUAGAGAAGGUACAUGAGGAUCACCCAUGUGUGAUUAUACA [Brourd's EX4 #72] (Eterna round: R97, puzzle: Brourd's mod of Exclusion 4)
- apparent KD of MS2 coat protein (input ligand: FMN 200 uM): 97.3 nM
- apparent KD of MS2 coat protein (input ligand: none): 114 nM

Sequence: GUAAUGCUAGGAUAUCGACAAAUUUACAUGAGGAUCACCCAUGUGAACCCUGUGUGGUAACGAGAAGGAGUCAGCU [Eternabot (L2) Solution 54] (Eterna round: R97, puzzle: Exclusion 5)
- apparent KD of MS2 coat protein (input ligand: FMN 200 uM): 39.1 nM
- apparent KD of MS2 coat protein (input ligand: none): 53.5 nM

Sequence: GUAAUGCUGCGAGGAUAUACAUGAGGAUCACCCAUGUGGAUGUCUGAGGCUUUGCCUCAGACGAUGUAGAAGGCGCAGUAAAAU [Mat - Exclusion NG 2 - Mod of JL - D53] (Eterna round: R96, puzzle: Exclusion NG 2)
- apparent KD of MS2 coat protein (input ligand: FMN 200 uM): 87.5 nM
- apparent KD of MS2 coat protein [4]: 11.5 nM
- apparent KD of MS2 coat protein (input ligand: none): 28.3 nM

Sequence: GUAAUUAAUGUAGGAUAUGCAAGGCGAACCUAAGCAGAAGGAACAUGAGGAUCACCCAUGUAUGCGGUCUGCGUACAGAUCGCU [salish99_ExNG1_r4_004] (Eterna round: R96, puzzle: Exclusion NG 1)
- apparent KD of MS2 coat protein (input ligand: FMN 200 uM): 15.1 nM
- apparent KD of MS2 coat protein [4]: 13.3 nM
- apparent KD of MS2 coat protein (input ligand: none): 19.7 nM

Sequence: GUAAUUAAUGUAGGAUAUGCAAGGCGAACCUAAGCAGAAGGACAUGUGGAUCACCCAUGACAUGAGGAUCACCCAUGUAUCGCU [salish99_ExNG1_r4_005] (Eterna round: R96, puzzle: Exclusion NG 1)
- apparent KD of MS2 coat protein (input ligand: FMN 200 uM): 109 nM
- apparent KD of MS2 coat protein [4]: 122 nM
- apparent KD of MS2 coat protein (input ligand: none): 212 nM

Sequence: GUAAUUAUAUAGGAUAUCGAAUUUAUUAUUUAACGAGAAGGAUGAACAUGAGGAUCACCCAUGUGGUAUCAUGG [JL-ex6-3.04] (puzzle: Exclusion 6)
- apparent KD of MS2 coat protein [1]: 145 nM
- apparent KD of MS2 coat protein [2]: 139 nM
- apparent KD of MS2 coat protein [3]: 165 nM

Sequence: GUACACGGCUAGGAUAUCAUUCCUUGCGACCCUUGAGAAGGAGCCACAUGAGGAUCACCCAUGUCAUAUGCAGA [Eternabot (Original) Solution 38] (Eterna round: R97, puzzle: Exclusion 6)
- apparent KD of MS2 coat protein (input ligand: FMN 200 uM): 37.5 nM
- apparent KD of MS2 coat protein (input ligand: none): 33.2 nM

Sequence: GUACAUAUAGGAUAUACAUGAGGAUCACCCAUGUAAAUCGUUAGUUGGGAUUCUAAAAGUAGAAGGGUGGUGCG [Eternabot (L2) Solution 30] (Eterna round: R97, puzzle: Exclusion 3)
- apparent KD of MS2 coat protein (input ligand: FMN 200 uM): 27.6 nM
- apparent KD of MS2 coat protein (input ligand: none): 27.4 nM

Sequence: GUACCAGAUGUCAGGAUAUGCUUUGAGAGUUGCGAGUAGAAGGGACAUGAGGAUCACCCAUGUACCUACAGGAA [BmEX4 B.30] (Eterna round: R97, puzzle: Brourd's mod of Exclusion 4)
- apparent KD of MS2 coat protein (input ligand: FMN 200 uM): 14.7 nM
- apparent KD of MS2 coat protein (input ligand: none): 14 nM

Sequence: GUACUGAAGCUUUGCUUUAGUCGUACAUGAGGAUCACCCAUGUAGGAUAUGGUAAGCAUAGCUUACUAGAAGGAUAGAGUGAUC [Mat - Exclusion NG 3 - Mod of JL - D65] (Eterna round: R96, puzzle: Exclusion NG 3)
- apparent KD of MS2 coat protein (input ligand: FMN 200 uM): 169 nM
- apparent KD of MS2 coat protein [4]: 56.6 nM
- apparent KD of MS2 coat protein (input ligand: none): 97.8 nM

Sequence: GUACUGACAGGAUAUACAUGAGGAUCACCCAUGUCCUUAGGCUGACAAAAGUCAGCAAGUAGAAGGGUCUGUAC [Omei Ex3 Model Bachelor's Dilema v3] (Eterna round: R97, puzzle: Exclusion 3)
- apparent KD of MS2 coat protein (input ligand: FMN 200 uM): 1500 nM
- apparent KD of MS2 coat protein (input ligand: none): 85.5 nM

Sequence: GUACUGACAGGAUAUACAUGAGGAUCACCCAUGUGCCCUUAAUGAUGCAAAGCAUCAAGUAGAAGGGUCUGUAC [Omei Ex3 Model Bachelor's Dilema v22] (Eterna round: R97, puzzle: Exclusion 3)
- apparent KD of MS2 coat protein (input ligand: FMN 200 uM): 42.5 nM
- apparent KD of MS2 coat protein (input ligand: none): 32.8 nM

Sequence: GUACUGACAGGAUAUACAUGAGGAUCACCCAUGUGCCUUAGCGCUACAAAAGUAGCGCGUAGAAGGGUCUGUAC [Omei Ex3 Model Bachelor's Dilema v16] (Eterna round: R97, puzzle: Exclusion 3)
- apparent KD of MS2 coat protein (input ligand: FMN 200 uM): 22.4 nM
- apparent KD of MS2 coat protein (input ligand: none): 14.7 nM

Sequence: GUACUGACAGGAUAUACAUGAGGAUCACCCAUGUGCCUUAUCGCUACAAAAGUAGCGAGUAGAAGGGUCUGUAC [Omei Ex3 Model Bachelor's Dilema v18] (Eterna round: R97, puzzle: Exclusion 3)
- apparent KD of MS2 coat protein (input ligand: FMN 200 uM): 27.1 nM
- apparent KD of MS2 coat protein (input ligand: none): 16.6 nM

Sequence: GUAGAGUCAGGAUAUACAAGAUCGAAAGAUCGAAGAUCCAUACAUGAGGAUCACCCAUGUAGAAGGGACUCUAC [ChP 11-04-2015 #3] (puzzle: Exclusion 2)
- apparent KD of MS2 coat protein [2]: 16.9 nM
